Laboratory results from patent US20060073508A1 (published 2006).

Target: GRK2 (βARK1)
Assay: cell-based or functional assay

agonist-promoted whole cell phosphorylation of the receptor (10 µM norepinephrine): 5.84 fold increase
B1: hemagglutinin epitope-tagged wild-type human alpha-2B adrenergic receptor (receptor)
chain: YPYDVPDYAMDHQDPYSVQATAAIAAAITFLILFTIFGNALVILAVLTSRSLRAPQNLFLVSLAAADILVATLIIPFSLANELLGYWYFRRTWCEVYLALDVLFCTSSIVHLCAISLDRYWAVSRALEYNSKRTPRRIKCIILTVWLIAAVISLPPLIYKGDQGPQPRGRPQCKLNQEAWYILASSIGSFFAPCLIMILVYLRIYLIAKRSNRRGPRAKGGPGQGESKQPRPDHGGALASAKLPALASVASAREVNGHSKSTGEKEEGETPEDTGTRALPPSWAALPNSGQGQKEGVCGASPEDEAEEEEEEEEEEEECEPQAVPVSPASACSPPLQQPQGSRVLATLRGQVLLGRGVGAIGGQWWRRRAQLTREKRFTFVLAVVIGVFVLCWFPFFFSYSLGAICPKHCKVPHGLFQFFFWIGYCNSSLNPVIYTIFNQDFRRAFRRILCRPWTQTAW
